According to article PMC7613515, “Reading and erasing of the phosphonium analogue of trimethyllysine by epigenetic proteins” (Communications Chemistry, 2022):
Where two headings read alike, the source gives them in different places. Square brackets hold non-standard residues; d marks the D form. Ends that are not written are not given here. Lys(Me3) = C[N+](C)(C)CCCC[C@H](N)C(=O)O

Legend:
[1] = biological target: T1, KDM5APHD3 (JARID1A-PHD3, residues M1489–V1641) (Homo sapiens, UniProt P29375); experiment: ITC, association of histone H3 peptides with KDM5APHD3; assay type: binding; conditions: 25 °C, H3 1-10 peptide (350–600 µM) into reader (25–40 µM), Tris (50 mM), NaCl (20 mM), pH 7.5, from 3 to 5 experiments
T1 construct: KDM5APHD3 (JARID1A-PHD3, residues M1489–V1641); made in house; host or cells: E. coli
T1 sequence (P29375 1489-1641): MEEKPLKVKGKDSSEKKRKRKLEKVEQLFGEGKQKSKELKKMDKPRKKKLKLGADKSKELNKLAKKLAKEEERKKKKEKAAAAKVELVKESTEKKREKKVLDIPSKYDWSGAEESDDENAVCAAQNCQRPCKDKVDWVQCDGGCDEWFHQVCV
Excerpt: (§1) We investigated the thermodynamics of association of the H3KP4me3 peptide with five representative human reader domains containing either a PHD zinc finger or TTD, i.e. KDM5APHD3 (JARID1A-PHD3, residues M1489–V1641)[10], TAF3PHD (R857–K924)[22], BPTFPHD (L2583–N2751)[23], SGF29TTD (R115–K293)[24] and KDM4ATTD (JMJD2A, Q897-P1011)[25], selected on the basis of their preference for binding Ν^ε-trimethyllysine over other (non)methylation marks (Kme0 < Kme1 < Kme2 < Kme3), and their domain and aromatic cage diversity. The recombinant readers were produced in E. coli following reported procedures. Isothermal titration calorimetric (ITC) analyses were used to determine the dissociation constant (Kd), the Gibbs free energy of binding (ΔG°), the enthalpy of binding (ΔH°), and the entropy of binding (ΔS°). […] (Table 1, Fig. 2, Supplementary Fig. 1).
(§2) The following purified reader domains: TAF3PHD (R857-K924), KDM5APHD3 (JARID1A, M1489-V1641), BPTFPHD (L2583-N2751), KDM4ATTD (JMJD2A, Q897-P1011) and SGF29TTD (R115-K293) were prepared as reported[10],[22]–[26]. The histone lysine demethylase were produced and purified to high purity via reported procedures KDM3A (JMJD1A, T515-S1317)[41], KDM4AJmjC[39] (JMJD2A, M1-L359), KDM4EJmjC (JMJD2E, M1–Q337)[34] and KDM7B[40] (PHF8, M37-N483 [NP_001171]). KDM5DJmjC was produced using an N-terminal hexa-His tagged KDM4D (KDM4DM1-L358) DNA construct, transformed into BL21(DE3) competent cells for recombinant protein production. Colonies were used to inoculate of LB media (50 mL) containing kanamycin (50 µg·mL^−1) and chloramphenicol (34 µg·mL^−1), which was placed in a 37 °C shaker overnight. The starter culture (10 mL) was used to inoculate TB media (6 × 1 L) containing kanamycin (50 µg·mL^−1) in 2 L baffled shaker flasks. After reaching an of OD600 of ~0.8, the temperature was reduced to 18 °C; at OD600 ~0.9 the cells were induced by the IPTG (0.5 mM) addition. After shaking overnight, the culture was centrifuged (5000 rpm, 10 mins), the media was decanted, and the cell pellet was suspended in Lysis Buffer [HEPES (50 mM), NaCl (500 mM), imidazole (20 mM), glycerol (5%) and TCEP (0.5 mM) in water (pH 7.4)]. The suspension was lysed by passaging through a high-pressure cell breaker (Avestin – EmulsiFlex-C5) for three rounds. The lysate was cleared by centrifugation (60 minutes, 36,000 × g, 4 °C), then loaded onto a Ni NTA gravity column. […]
(§3) ITC studies followed a reported procedure. […] Histone peptide titrations were performed with the same reader batches. Solutions of the reader in buffer (25–40 µM) and of the histone H3 peptide (350–600 µM) in buffer were prepared. […] Heats of dilution for histone peptides determined in control experiments were subtracted from the titration binding data. […]

[2] = biological target: T2, TAF3PHD (R857–K924) (Mus musculus, UniProt Q5HZG4); experiment: ITC, association of histone H3 peptides with TAF3PHD; assay type: binding, human; conditions: 25 °C, H3 1-10 peptide (350–600 µM) into reader (25–40 µM), Tris (50 mM), pH 7.5, from 3 to 5 experiments
T2 construct: TAF3PHD (R857–K924); made in house; host or cells: E. coli
T2 sequence (Q5HZG4 857-924 limits assumed): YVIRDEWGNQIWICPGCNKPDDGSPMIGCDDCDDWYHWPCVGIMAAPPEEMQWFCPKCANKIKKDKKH
Excerpt: as §1, §2, §3

[3] = biological target: T3, SGF29TTD (R115–K293) (Homo sapiens, UniProt Q96ES7); experiment: ITC, association of histone H3 peptides with SGF29TTD; assay type: binding; conditions: 25 °C, H3 1-10 peptide (350–600 µM) into reader (25–40 µM), pH 7.5, from 3 to 5 experiments
T3 construct: SGF29TTD (R115–K293); made in house; host or cells: E. coli
T3 sequence (Q96ES7 115-293): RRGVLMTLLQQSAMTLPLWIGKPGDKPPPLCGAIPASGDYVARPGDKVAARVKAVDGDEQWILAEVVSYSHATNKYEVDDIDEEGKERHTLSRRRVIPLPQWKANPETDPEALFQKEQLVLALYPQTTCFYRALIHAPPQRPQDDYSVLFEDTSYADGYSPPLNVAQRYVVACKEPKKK
Excerpt: as §1
(§4) The following purified reader domains: TAF3PHD (R857-K924), KDM5APHD3 (JARID1A, M1489-V1641), BPTFPHD (L2583-N2751), KDM4ATTD (JMJD2A, Q897-P1011) and SGF29TTD (R115-K293) were prepared as reported[10],[22]–[26]. The histone lysine demethylase were produced and purified to high purity via reported procedures KDM3A (JMJD1A, T515-S1317)[41], KDM4AJmjC[39] (JMJD2A, M1-L359), KDM4EJmjC (JMJD2E, M1–Q337)[34] and KDM7B[40] (PHF8, M37-N483 [NP_001171]). KDM5DJmjC was produced using an N-terminal hexa-His tagged KDM4D (KDM4DM1-L358) DNA construct, transformed into BL21(DE3) competent cells for recombinant protein production. Colonies were used to inoculate of LB media (50 mL) containing kanamycin (50 µg·mL^−1) and chloramphenicol (34 µg·mL^−1), which was placed in a 37 °C shaker overnight. The starter culture (10 mL) was used to inoculate TB media (6 × 1 L) containing kanamycin (50 µg·mL^−1) in 2 L baffled shaker flasks. After reaching an of OD600 of ~0.8, the temperature was reduced to 18 °C; at OD600 ~0.9 the cells were induced by the IPTG (0.5 mM) addition. After shaking overnight, the culture was centrifuged (5000 rpm, 10 mins), the media was decanted, and the cell pellet was suspended in Lysis Buffer [HEPES (50 mM), NaCl (500 mM), imidazole (20 mM), glycerol (5%) and TCEP (0.5 mM) in water (pH 7.4)]. The suspension was lysed by passaging through a high-pressure cell breaker (Avestin – EmulsiFlex-C5) for three rounds. The lysate was cleared by centrifugation (60 minutes, 36,000 × g, 4 °C), then loaded onto a Ni NTA gravity column. After extensive rinsing of the Ni-NTA gravity column with lysis buffer, the His-tagged protein was eluted in lysis buffer containing 300 mM imidazole. The eluted protein was concentrated and subjected to gel filtration chromatography using an AKTA Xpress system, an S200 16/600 gel filtration column, and GF buffer [HEPES (50 mM), NaCl (150 mM), glycerol (5%) and TCEP (0.5 mM) in water (pH 7.4)]. The protein identity was verified by LC-MS (ESI-TOF) observing a mass of 43759.7 Da, in accord with the predicted mass of 43751.6 Da.
as §3, with “procedure. The buffer used corresponded to that used in the final protein purification step.” for “procedure.”

[4] = biological target: T4, KDM4ATTD (JMJD2A, Q897-P1011) (Homo sapiens, UniProt O75164); experiment: ITC, association of histone H3 peptides with KDM4ATTD; assay type: binding; conditions: 25 °C, H3 1-10 peptide (350–600 µM) into reader (25–40 µM), Tris (50 mM), pH 7.5, from 3 to 5 experiments
T4 construct: KDM4ATTD (JMJD2A, Q897-P1011); made in house; host or cells: E. coli
T4 sequence (O75164 897-1011): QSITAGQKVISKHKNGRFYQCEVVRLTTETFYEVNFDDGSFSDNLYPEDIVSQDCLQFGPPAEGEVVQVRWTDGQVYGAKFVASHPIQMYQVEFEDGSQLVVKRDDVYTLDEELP
Excerpt: as §1, §4
ITC studies followed a reported procedure. The buffer used corresponded to that used in the final protein purification step. Briefly, TAF3PHD and KDM4ATTD: [Tris (50 mM) in water (pH 7.5)]; KDM5APHD3 and BTPFPHD: [Tris (50 mM), NaCl (20 mM) in water (pH 7.5)]; [Tris (25 mM), NaCl (50 mM), 1,4-dithiothreitol (1.0 mM) in water (pH 7.5)]. Experiments were conducted using ITC200 automated (GE Healthcare Life Sciences, USA) instrument at 25 °C. Histone peptide titrations were performed with the same reader batches. Solutions of the reader in buffer (25–40 µM) and of the histone H3 peptide (350–600 µM) in buffer were prepared. The prepared solutions were plated into a 96-well plate and inserted into the instrument for analysis. Experiments were performed according to manufacturer’s default settings: Plate pre-rinse syringe clean. A total of 19 injections were performed; each experiment was repeated 3–5 times. Heats of dilution for histone peptides determined in control experiments were subtracted from the titration binding data. […]

[5] = cited from earlier work
Excerpt: Some JmjC KDMs can also catalyse N-methyl arginine demethylation and with appropriately sized N^ε-substitutions some can catalyse forma ...

[6] = system: KDM4E; conditions: reported, shorter H3_7-14K9me3 substrate; cited from earlier work
Excerpt: Reactions were monitored using MALDI-TOF mass spectrometry (Fig. 5b–d). […] Some JmjC KDMs can also catalyse N-methyl arginine demethylation and with appropriately sized N^ε-substitutions some can catalyse forma ...

[7] = biological target: T5, BPTFPHD (L2583–N2751) (Homo sapiens, UniProt Q12830); conditions: reported, ITC, H3 1-10, cited from earlier work
T5 construct: BPTFPHD (L2583–N2751); made in house; host or cells: E. coli

[8] = biological target: T1, KDM5APHD3 (JARID1A-PHD3, residues M1489–V1641); conditions: reported, ITC, H3 1-10, cited from earlier work
Excerpt: page 30: Supplementary Table 5 Overview of reported ITC binding values of chromatin binding modules with H3 peptides (K d in µM) with various lysine modification. […] N.D. not determined; N.M: not measured. Modification KDM5A PHD3 TAF3PHD BPTFPHD SGF29TT ...

[9] = biological target: T4, KDM4ATTD (JMJD2A, Q897-P1011); conditions: reported, ITC, H3 1-10, cited from earlier work
Excerpt: (§5) N.D. not determined; N.M: not measured. Modification KDM5A PHD3 TAF3PHD BPTFPHD SGF29TT ...

[10] = biological target: T3, SGF29TTD (R115–K293); conditions: reported, ITC, H3 1-10, cited from earlier work
Excerpt: as §5

[11] = biological target: T2, TAF3PHD (R857–K924); conditions: reported, ITC, H3 1-10, cited from earlier work
Excerpt: as §5

Work on `C[C@H](N)C(=O)N[C@@H](CCCNC(=N)N)C(=O)N[C@H](C(=O)N[C@@H](CCCC[N+](C)(C)C)C(=O)N[C@@H](CCC(N)=O)C(=O)N[C@H](C(=O)N[C@@H](C)C(=O)N[C@@H](CCCNC(=N)N)C(=O)N[C@@H](CCCCN)C(=O)N[C@@H](CO)C(N)=O)[C@@H](C)O)[C@@H](C)O` [H3K4me3, reference compound] yielded a Kd [1] of 0.52 µM, a Kd [2] of 0.11 µM and a Kd [3] of 3.2 µM. The Kd [4] was 3.5 µM.
In the case of `C[N+](C)(C)C` [^+Nme4, reference compound], the volume [5] is listed as 105 Å^3.
For `C[P+](C)(C)C.[I-]` [^+Pme4, reference compound], the volume [5] is given as 115 Å^3.
In the case of “H3_7-14K9me3: shorter H3_7-14K9me3 substrate (AR[Lys(Me3)]STGGK; UniProt P68431 8-15, looked up, fragment)”, the Km [6] is given as 21.3 µM and the kcat [6] is given as 0.0767 s⁻¹.
For “K4Cme3: H3 1-10 peptide with K4Cme3 modification, Hintzen et al.”, the Kd ([7]; ref Hintzen et al. (SI ref 11)) is given as 3.8 µM.
In the case of “K4Cme3: H3 1-10 peptide with K4Cme3 modification, Hintzen et al. (ARTCQTARKS; Cys4 S-alkylated with 2-(trimethylammonio)ethyl = trimethylthialysine, a cysteine-derived trimethyllysine analogue (identity inferred from the cited Hintzen et al. work))”, the Kd ([8]; ref Hintzen et al. (SI ref 11)) is given as 0.15 µM, the Kd ([9]; ref Hintzen et al. (SI ref 11)) is given as 3.1 µM and the Kd ([10]; ref Hintzen et al. (SI ref 11)) is given as 6.1 µM. The Kd ([11]; ref Hintzen et al. (SI ref 11)) was 0.042 µM.
For “K4G: K4me3 in H3K4me3 substituted for glycine (ARTGQTARKS)”, the Kd ([8]; ref Kamps et al. (SI ref 9)) is listed as 88 µM and the Kd ([11]; ref Kamps et al. (SI ref 9)) is listed as 36 µM.
For “L-K4me3: H3 1-10 peptide with L-K4me3 modification, Belle et al.”, the Kd ([8]; ref Belle et al. (SI ref 8)) is given as 0.11 µM, the Kd ([9]; ref Belle et al. (SI ref 8)) is given as 1.1 µM and the Kd ([10]; ref Belle et al. (SI ref 8)) is given as 1.7 µM. The Kd ([11]; ref Belle et al. (SI ref 8)) was 0.082 µM and the Kd ([7]; ref Belle et al. (SI ref 8)) was 0.44 µM.
